From patent publication US20250388666A1 (BRIGHAM AND WOMEN S HOSPITAL, published 2025)

T1: CEACAM5 on transfected HeLa cells (UniProt P06731 35-685)
T1 construct: whole, on cells; also called C5
T1 sequence (looked up): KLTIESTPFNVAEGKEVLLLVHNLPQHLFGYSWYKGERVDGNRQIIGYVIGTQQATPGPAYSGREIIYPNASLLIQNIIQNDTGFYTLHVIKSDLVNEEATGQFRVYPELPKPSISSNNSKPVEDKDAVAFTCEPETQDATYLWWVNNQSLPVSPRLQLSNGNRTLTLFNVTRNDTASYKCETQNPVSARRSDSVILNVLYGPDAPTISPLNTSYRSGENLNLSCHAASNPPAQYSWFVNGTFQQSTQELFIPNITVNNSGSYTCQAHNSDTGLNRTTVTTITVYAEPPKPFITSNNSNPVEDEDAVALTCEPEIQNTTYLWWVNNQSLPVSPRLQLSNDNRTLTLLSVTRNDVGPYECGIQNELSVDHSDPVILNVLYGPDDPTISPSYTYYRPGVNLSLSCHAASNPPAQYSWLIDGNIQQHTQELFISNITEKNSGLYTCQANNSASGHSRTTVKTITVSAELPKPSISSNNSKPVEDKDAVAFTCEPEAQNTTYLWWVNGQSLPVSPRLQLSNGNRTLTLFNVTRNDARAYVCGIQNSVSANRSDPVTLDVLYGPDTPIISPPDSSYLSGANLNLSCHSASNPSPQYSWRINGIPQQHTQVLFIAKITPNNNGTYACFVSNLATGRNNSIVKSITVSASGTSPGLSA

T2: CEACAM1 on transfected HeLa cells (Homo sapiens (Human), UniProt P13688 35-526)
T2 construct: also called C1
T2 sequence: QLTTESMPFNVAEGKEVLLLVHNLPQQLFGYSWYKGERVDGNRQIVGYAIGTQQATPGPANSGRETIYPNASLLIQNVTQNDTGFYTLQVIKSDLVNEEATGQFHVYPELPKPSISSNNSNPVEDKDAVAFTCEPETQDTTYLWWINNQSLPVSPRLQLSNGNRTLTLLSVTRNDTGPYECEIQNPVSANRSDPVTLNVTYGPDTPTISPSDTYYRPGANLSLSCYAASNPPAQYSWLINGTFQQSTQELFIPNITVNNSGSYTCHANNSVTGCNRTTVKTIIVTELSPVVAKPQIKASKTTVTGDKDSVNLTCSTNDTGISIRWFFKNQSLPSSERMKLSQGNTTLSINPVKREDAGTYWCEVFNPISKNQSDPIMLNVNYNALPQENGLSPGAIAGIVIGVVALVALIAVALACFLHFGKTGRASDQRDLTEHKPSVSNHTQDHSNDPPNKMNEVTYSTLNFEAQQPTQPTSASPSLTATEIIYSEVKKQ

T3: CEACAM6 (Sino Biological) (human, UniProt P40199 35-320)
T3 construct: also called hCEACAM6
T3 sequence (looked up): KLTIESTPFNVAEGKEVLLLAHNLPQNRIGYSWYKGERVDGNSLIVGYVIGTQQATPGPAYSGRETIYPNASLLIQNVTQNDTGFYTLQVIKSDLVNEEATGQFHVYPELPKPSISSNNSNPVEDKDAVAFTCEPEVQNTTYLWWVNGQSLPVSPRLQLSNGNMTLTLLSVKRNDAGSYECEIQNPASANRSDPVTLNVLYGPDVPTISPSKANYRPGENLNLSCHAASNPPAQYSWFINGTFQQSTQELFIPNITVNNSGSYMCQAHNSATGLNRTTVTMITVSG

T4: CEACAM3 (Sino Biological) (human, UniProt P40198 35-155, limits assumed)
T4 construct: also called hCEACAM3
T4 sequence (looked up): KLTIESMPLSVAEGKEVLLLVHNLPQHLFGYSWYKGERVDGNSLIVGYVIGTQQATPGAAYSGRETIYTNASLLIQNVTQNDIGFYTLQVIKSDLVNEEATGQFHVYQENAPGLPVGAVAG

T5: CEACAM1 (Sino Biological) (human, UniProt P13688 35-428, limits assumed)
T5 construct: may be the same as CEACAM1-HIS; also called hCEACAM1; biotinylated soluble CEACAM1
T5 sequence: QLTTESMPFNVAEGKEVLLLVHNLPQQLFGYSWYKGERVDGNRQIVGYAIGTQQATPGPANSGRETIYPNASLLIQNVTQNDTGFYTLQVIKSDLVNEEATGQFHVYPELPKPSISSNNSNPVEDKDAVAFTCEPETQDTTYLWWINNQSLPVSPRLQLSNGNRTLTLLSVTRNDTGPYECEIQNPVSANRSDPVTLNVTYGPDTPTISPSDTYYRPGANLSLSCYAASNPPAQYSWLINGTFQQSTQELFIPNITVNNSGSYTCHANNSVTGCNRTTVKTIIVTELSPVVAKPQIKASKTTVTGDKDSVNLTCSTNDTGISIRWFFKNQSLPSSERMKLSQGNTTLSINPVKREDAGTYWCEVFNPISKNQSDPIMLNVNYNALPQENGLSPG

T6: CEACAM5 (Sino Biological) (human, UniProt P06731 35-685)
T6 construct: also called hCEACAM5
T6 sequence (looked up): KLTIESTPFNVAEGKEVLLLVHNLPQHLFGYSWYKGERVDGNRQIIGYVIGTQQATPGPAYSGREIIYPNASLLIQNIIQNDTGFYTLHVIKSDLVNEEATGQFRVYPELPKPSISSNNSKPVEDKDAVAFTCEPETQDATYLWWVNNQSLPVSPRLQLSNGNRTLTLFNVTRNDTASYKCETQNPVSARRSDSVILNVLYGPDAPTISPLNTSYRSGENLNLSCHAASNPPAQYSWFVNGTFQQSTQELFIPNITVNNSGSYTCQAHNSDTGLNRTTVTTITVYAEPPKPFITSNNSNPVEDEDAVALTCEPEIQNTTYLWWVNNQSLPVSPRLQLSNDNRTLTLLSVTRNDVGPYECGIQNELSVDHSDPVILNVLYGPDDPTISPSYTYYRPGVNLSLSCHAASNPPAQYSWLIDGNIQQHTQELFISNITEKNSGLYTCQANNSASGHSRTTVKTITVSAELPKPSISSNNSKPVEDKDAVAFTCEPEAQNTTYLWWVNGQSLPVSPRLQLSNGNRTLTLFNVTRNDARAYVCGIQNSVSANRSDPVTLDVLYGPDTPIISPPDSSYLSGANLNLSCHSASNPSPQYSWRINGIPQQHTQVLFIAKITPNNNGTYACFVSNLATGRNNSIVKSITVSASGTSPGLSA


Tests used:
[1] = biological target: T1, CEACAM5 on transfected HeLa cells; test: flow cytometry, transfected HeLa
Method: (§1) Binding selectivity of the selected antibody variants was assessed by flow cytometry using HeLa cells transfected with vectors expressing CEACAM1, CEACAM5, and CEACAM6, respectively. The resulting cells were used for flow cytometry experiments and were cultured at 37° C., 5.0% CO₂ in Dulbecco's modified Eagle's medium supplemented with 10% fetal bovine serum, penicillin (100 U/ml) and dihydrostreptomycin ([…]). Cell lines were stained with the indicated antibodies followed by fluorochrome-conjugated monoclonal antibody specific for the indicated antibody isotypes such as human IgG4 or mouse IgG1 together with viable dye (DAPI). Data were acquired with a Cytoflex flow cytometer ([…]) and analyzed with FlowJo software (TreeStar, V7.6.5 for Windows).

[2] = biological target: T2, CEACAM1 on transfected HeLa cells; test: flow cytometry, transfected HeLa
Method: as §1

[3] = biological target: T3, CEACAM6 (Sino Biological); test: binding ELISA on plate-coated CEACAM (0.5 µg/mL); antibody at 1.67, 0.062 and 0.0069 µg/mL; signal as % of parent IgG on CEACAM1 at 1.67 µg/mL on the same plate
[4] = biological target: T4, CEACAM3 (Sino Biological); test: as above
[5] = biological target: T5, CEACAM1 (Sino Biological); test: SPR single-cycle
In short: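 Humanized affinity-matured IgGs from crude supernatants captured on Protein A to ~100 RU, with CEACAM1 analyte injected at 25–100 nM (three-point, two-fold) in HBS-P+ without regeneration. 200 s association per injection, 300 s single dissociation; reference-channel and blank subtracted.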

[6] = biological target: T5, CEACAM1 (Sino Biological); test: SPR multi-cycle, IgG on Protein A
Method: Multi-cycle kinetics analysis was performed on the twelve lead antibodies using a Biacore T200 instrument running Biacore T200 Evaluation Software V3.0.1 (Uppsala, Sweden) to establish an accurate affinity for CEACAM1. The purified antibodies were diluted to a concentration of […] in HBS-P+. At the start of each cycle, each antibody was captured on the Protein A surface to give an RL of ˜100 RU. Following capture, the surface was allowed to stabilize. Kinetic data was obtained using a flow rate of […] to minimize any potential mass transfer effects. For the kinetics analysis, CEACAM1 was used. Multiple repeats of the blank ([…]) and a repeat of a single concentration of the analyte were programmed into the kinetic run in order to check the stability of both the surface and analyte over the kinetic cycles. For kinetic analysis, a two-fold dilution range was selected from 200 to 3.125 nM CEACAM1. The association phase of CEACAM1 was monitored for 275 seconds and the dissociation phase was measured for 250 seconds. Regeneration of the Protein A surface was conducted using two injections of 10 mM glycine-HCL pH 1.5 at the end of each cycle.
The signal from the reference channel Fc1 was subtracted from that of Fc2, Fc3 and Fc4 to correct for differences in non-specific binding to a reference surface, and a global Rmax parameter was used in the 1-to-1 binding model. The relative KD was calculated by dividing the KD of the RSB02 Parent by that of the humanized and affinity matured variants on the same chip.

[7] = biological target: T6, CEACAM5 (Sino Biological); test: binding ELISA on plate-coated CEACAM (0.5 µg/mL); antibody at 1.67, 0.062 and 0.0069 µg/mL; signal as % of parent IgG on CEACAM1 at 1.67 µg/mL on the same plate

Row | relative fluorescence intensity [1] | relative fluorescence intensity [2] | binding result [3] | binding result [4] | Kd [5] | fold better than Parent (KD) [5] | Kd [6] | koff [6] | kon [6] | relative KD to Parent [6] | binding result [7] | Binder
1 | 0.0622 | 87.1 | – | – | – | – | – | – | – | – | – | VH1 N56Q/VK4 S27(f)A (antibody, human IgG4, V domains shown, aglycosylated humanized variant; human IgG4) VH: EVQLLESGGGLVQPGGSLRLSCAASGFSFSDYYLYWVRQAPGKGLEWVATISVGGGQTSYPDSVKGRFTISRDNSKNTLYLQMNSLRAEDTAMYYCTRGLYYGPAWFAYWGQGTLVTVSS VL: not shown
2 | – | – | no binding (tested: 1.67 µg/mL) | no binding (tested: 1.67 µg/mL) | 56 nM | 2.83 fold | 101 nM | 0.00362 s⁻¹ | 35700 M⁻¹ s⁻¹ | 1.84 ratio | – | Parent VH/L18 (antibody, IgG4, V domains shown, IgG4 S241P, kappa; also called VHp/L18; VH2 N56Q / 18) VH: EVQLLESGGGLVQPGGSLRLSCAASGFSFSDYYLYWVRQAPGKGLEWVATISVGGGQTSYADSVKGRFTISRDNSKNTLYLQMNSLRAEDTAMYYCTRGLYYGPAWFAYWGQGTLVTVSS VL: DIVMTQSPDSLAVSLGERATINCKSSQSLLNSANQKNYLAWYQQKPGQPPKLLIYFASTRESGVPDRFSGSGSGTDFTLTISSLQAEDVAVYYCQSHFPYPFTFGGGTKVEIK
3 | – | – | – | – | 57 nM | 9.71 fold | 33.7 nM | 0.0013 s⁻¹ | 38600 M⁻¹ s⁻¹ | 3.89 ratio | binds | He9/L4#2 (antibody, IgG4, V domains shown, IgG4 S241P, kappa) VH: EVQLLESGGGLVQPGGSLRLSCAASGFSFSDYYLYWVRQAPGKGLEWVATISVGGGQTSYADSVKGRFTISRDNSKNTLYLQMNSLRAEDTAMYYCARAMYYGPAWFAYWGQGTLVTVSS VL: DIVMTQSPDSLAVSLGERATINCKSSQSLLNSANQKNYLAWYQQKPGQPPKLLIYFASTRESGVPDRFSGSGSGTDFTLTISSLQAEDVAVYYCQSHYPYPYTFGGGTKVEIK
